Data: the nanobody polyreactivity screen of Harvey et al. (2022)

assay: yeast display, Sf9 membrane polyspecificity reagent, FACS + sequencing; frameworks hold sequencing errors
Procedure, shortened: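 A synthetic nanobody library was expressed on Saccharomyces cerevisiae BJ5465 by galactose induction for 36–48 hours. The library was stained for 1 hour at 4 °C with 10% biotinylated, detergent-solubilized Sf9 membrane reagent and enriched with streptavidin microbeads before FACS. Low and high (top ~1%) gates were set on anti-HA fluorescence for expression and streptavidin fluorescence for reagent binding, and each polyreactivity label reflects the gate of origin.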

Row | Sequence | polyreactivity (PSR sort gate)
1 | QVQLVESGRGLVQAGGSLRLSCAASGRIGKYAMGWYRQAPGKERELVATISSTGTTNYADSVKGRFTISRDNAKNTVYLQMNSLKPDDTAVYYCAAVRHKEYDYWGQGTQVTVSS | high polyreactivity
2 | QVQVVESRGGLVQAGGRLRLSCAASGSTFGVNAMGWYRTAPGKERELVAAISYTGGSTYYADSVKGRFTISRDNAKNTVYLQMNSLKAEHTAVSYCAVEVGYTDSPYSYDYWGQGTQVTVSS | low polyreactivity
3 | QVQLVESGGGLVQAGGSLRLSCADSGITFSRNAMGWYRQAPGKEMELVATITSGGSTNYADSVKGRFTISRDNAKNTVYLQMNSLKPEDTAVYYCNAVWNTFISGRSYDYWGQGTQVTVSS | low polyreactivity
4 | QVQLVESGGGLVQAGGSLRLSCAPSGRIFSHYAMGWYRQAPGKERELVAAITSDGSTNYADSVKGRFTISRDNAKKTVYLQMNSLKPEDTAVYYSAKYVHIPDYYYLFGSYDYWGQGTQVTVSS | low polyreactivity
5 | QVQLVESGGGLVQAGGSLRLSCAASGIIFSFYAMGWYRQAHGKERELVADITLSGGRTYYADSVKGRFTISRDNAKNTVYLQMNSLKPEDTAVYYCNADTYERGDYWGQGTQVTVSS | high polyreactivity
6 | QVQLVESGGGLVQAGGSLRLSCAASGFIFVYNVMGWYRQAPGKERELVAAITSGGSTNYADSVKGRFTISRDNAKNTVFLKMNSLKPEDTAVYYCNADIYPDWIYLLYGYWGQGTQVTVSS | low polyreactivity
7 | QVQLVESWGGLVQAGGSLRLSCAASGLILFAYTMGWYRQAPGKERELVAGIDGSGGTTYYADSVKGRFTISRDNAKNTVYLQMNSLNPEDTAVYYCAASGFRWQGVKRMDYWGQGTQVTVSS | low polyreactivity
8 | QVQLVESGGGLVQAGGSLRLSCAASGRILIHYAMRWYRQAPGKERELVAAIDNSVSTYYADSVKGRFTISRDNAKNTVYLQMNSLKPEDTAVYYCAADHWTHSVWGSGYKYYYWGQGTQVTVSS | high polyreactivity
9 | QVQLVESGGGLVQAGGSLRLSCAASGRIFRVYAMGWYRQAPGKERELVAAISSYGGSTYYADSVKGRFTISRDNAKNTVYLQMNSLIPEDTAVYYCAAESSPDGYFLSDYWGQGTQVTVSS | low polyreactivity
10 | QVQLEESGGGLVQAGGSLRLSCAASGNIFYYYAMGWYRQAPGKEREVVATITSGGSTNYADSVKGRFTISRDNAKNTVYLQMNSLKPEDTAVYYCAADRRRTYYWLSSYFEGYYWGQGTQVTVSS | low polyreactivity
11 | QVQLVESGGGLVQAGGSLRLSCAASGLTFSWYAMGWYRPAPGKERELVAAISSGGSTYYADSVKGRFTISRDNAKNTVYLQMNSLKPEDTAVYYCNAESYYYGFFWSGFRYGYWGQGTQVTVSS | high polyreactivity
12 | QVQLVESGGGLVQAGGSLRLSCAASGSTFYSYAMGWYRQAPGKERELVAAISWDGGLTYYADSVKGRFTISRDNAKNTVYLQMNSLKPEDNAVYYCAAAYPTYRHYYWGQGTQVTVSS | low polyreactivity
13 | QVQLGESGGALVQAGGSLRLSCAASGFTFKYYAMGWYRQAPGKERELVAAISRGGSTYYADSVKGRFTISRDNAKNTVYLQMNILKPEDTAVYYCAARYVRVGYDYWGQGTQVTVSS | high polyreactivity
14 | QVQLVESGGGLVQAGGRSCAASGSTFRPYAMGWYRQAPGKEREFVAAISWRGGRTYYADSVKGRFTISRDNAKNTVYLQMNSLKPEDTAVYYCAVDPSIYRLSAYYYDYWGQGTQVTVSS | low polyreactivity
15 | QVQLVESGGGLVQAGGSLRLSSAASGSTFNSYAMGWYRQAPGKERELVAGITSRGTSTYYADSVKGRFTISRDNAKNTVYLQMNSLKPEDTAVYYCNKYHYWASPMNYWGHGTQVTVSS | high polyreactivity
16 | QVQLVESGGGLVQAGGSLRLSCAASGIIFFHYAMGWYRQAPGKERELVAAITWSGGSTYYADSVKGRFTISRDNAKNTVYLKMNSLKPEDSAVYYCNAVLHRRLYDYWGQGPQVTVSS | high polyreactivity
17 | QVQLVESGGGLVQAGGSLRLSCAASGRILYYYAMGWYRQAPGKERELVAGITTDDSTNYADSVKGRFTISRDNAKNTVYFQMNSLKPEDTAVYYCAAKYVHGEYDYWGQGTQVTVSS | low polyreactivity
18 | QVQLVESGGGLVQAGGSLRLSCAASGSIFNGYAMGWYRQAPGKERELVADIRSGGSTYYADSVKGRFTISRDNAKYTVYLQMNSLKPEDTAVYYCAADTITDGYDYWGQGTQVTVSS | low polyreactivity
19 | QVQLVESGGGLVQAGGSLRLTCAASGRNFQVYAMGWYRQAPGKERELVAGITRAGSTYYADSVKGRFTISRDNAKNTVYLQLNSLKPEDTAVYYCAASRWHGYNYWGQGTQVTVSS | high polyreactivity
20 | QVQLVESGGGLVQAGGSLRLSCAASGSTFRSNAMGWYRQAPGKERELVAAITYSGGRTYYADSVKGRFTFSRDNAKNTVYLQMNSLIPEDTAVYYCAKVGWSRRYYYWGQGTQVTVSS | high polyreactivity
21 | QVQLVESGGGLVQAGGSLRLSCAASGYTFYANAMGWYRQAPGKEREFVASITWSGGSTYYADSVKGRFTISRDNAKNTVYLQMNSLKTEDTAVYYCAAESWFKYDYWGQGTQVTVSS | low polyreactivity

Row | Sequence | polyreactivity (PSR sort gate)
22 | QVQLVESGGGLVQAGGSLRLSCAASGRTFGGNAMGWSRQAPGKERELVAAISISGGSNTYYADSVKGRFTISRDNGKNTVYLQMNSLKPEDTAVYYCAARSTVYISSDYWGQGTQVTVSS | low polyreactivity
23 | QVQLVESGGGLVQAGGSLRLSSAASGITSYGYAMGWNRQAPGKERELVASISWTGGNTYADSVKGRFTISRDNAKNTVYLQMNSLFPEDTAVYYCNAGRSWDYWYGYDYWGQGTHVTVSS | low polyreactivity
24 | QLQLVESGGGLVQAGGSLRLSCAASGTIFDTYAMGWSRQAPGKEMELVAAIRWTGGSTYYADSVKGRFTISRENAKNTVYFQMNSLKPEDTAVYYCAATWYYHYNDWKPWFEYGYWGQGTQVTVSS | low polyreactivity
25 | QVQLVESGGGLVQAGGSLRLSCAASGSTFYPNAMGGYRQAPGKERELVATITQRGGTTYYADSVKGRFTISRDNAKNTVYLQMNSLKPEDTAVYYCNAGPVRLPYDSWGQGTQVTVSS | low polyreactivity
26 | QVQLVESGGGLVQAGGSLRLSCAASGNTFVTYTMGWYRQAPGKERELVADISSGGSTYYADSVKGRFTISRDNAKNTVYLQMNSLKPEDTAVYYCAVQQAVFRSYYIYHRYYWGQGTQVTVSS | high polyreactivity
27 | QVQLVESGGGLVQAGGSLRLSCAASGYTFYRYAMGWYRQAPGKERELVAGISRDGGSTYYADSVKGRFTISRDNAKNTVYLQMNSLKPEDTAVYYCAADKTRYRLGRDYWGQGTQVTVSS | low polyreactivity
28 | QVQLVESGGGLVQAGGSLRLSCAASGSIFRKYVMGWYRQAPGKERELVAAISGSGGRTYYADSVKGRFTISRDNAKNTVYLQMNSLKPEDTAVSYSNAYPHAYTGSTREGDYWGQGTQVTVSS | high polyreactivity
29 | QVQLVESGGGLVQAGGSNRLSCAASGFTFYRNVMGWYRQAPGKERELVAARTWNGGTTYYADSEKGRFTISRDTAKSSVYLQMDSLQREDTAVYFCAAASRHTGSYRFYYWGQGTQVTVSS | high polyreactivity
30 | QVQHVESGGGLVQAGGSLRLSCASSGSTFWAYAMGWYRLAPGKERELVATITGSVGGTYYADSVKGRFTISRDNAKNTVYLQMNSLKPEDTAVYYCATDAYVKGVYEISEDRVDYWGQGTQVTVSS | low polyreactivity
31 | QVQLVESGGGLVQAGGSLRLSCAASGRTFYRKAMGWYRQAPGKERELVAAITYGGGSTYYADSVKGRFTISRDNAKNTVYLQMNSLKPEDTAVYYCNALRNVRTGRTQVLSYYWGQGTQVTVSS | high polyreactivity
32 | QVQLVESGGGLVQAGGSLRLSCAASGRIFSVYTMGWYRQAPGKERELVATISSGGRTNYADSVKGRFTISRDNAKNTVYLQLNSLKPEDTAVYYCNADYFGQESWWMDYWGQGTQVTVSS | low polyreactivity
33 | QVQLVESGGGLVQAGGSLRLSCAASGRTFARYAMGSYRQAPGKERELDAAITSGGSTNYADSVKGRFTISRDNAKNTVYLQMNSLKPEDTAVYYCNARRRAPKGPIPAGNYWGQGTQVTVSS | high polyreactivity
34 | QVQLVESGGGLVQAGGSLRLSCAAYGYIFIRNAMGCYRQAPGKERELVAAISWTGGNTYYADSVKGRFTISRDNAKNTVYLQMNSLIPEDTAVYYCAAQRSVFKSFRTTYVSYDYWGQGTQVTVSS | high polyreactivity
35 | QVQLVESGGGLVQAGGSLRLSCAASGFNFSQYAMGWYRQAPGKERELVAAISSGSTYADSVKGRFTISRDNAKNSVYLQMNSLKREDTAVYYCANDPFSRGSRRYDYWGQGTQVTVSS | low polyreactivity
36 | QVQLVESGGGLVQAGGSLRLSCAASGSTFGWNAMGWYRKAPGKERELVAAISSYGGITYYADSVKGRFTISRDNEKNTVYLQMNSLKPEDTAVYYCAAERDDDWVNYWGQVTQVTVSS | low polyreactivity
37 | QVQLVESGGGLVQAGGSLRLSCAASGRTFRPNVMGWYRQAPGKERELVAAISNGGRTYYADSVKGRFTISRDNAKNTVYLQMNSLKPEDTAVYYCNKVRSPWYDSWGQGTQVTVSS | high polyreactivity
38 | QVQLVESGGGLVQAGGSLRLSCAASGIFDYYGMGWYRQAPGKERELVAAITWNGGSTYYADSVKGRLTISRDNAKNTVYVQMNSLKPEDTAVYYCATTDWYHSPGYDYRGQGTQVTVSS | low polyreactivity
39 | QVQLVESGGGLVQAGGSLRLSCAASGFIIDDNTMGWYRQAPGKEMELVAAISYSAGSTYYADSVKGRFTISRDNAKNTVYLQMNSVKPEDTAVYYCAAQHYWVTSYLSSSDYWGQGTQVTVSS | low polyreactivity
40 | QVQLVESGGGLVQAGGSLRLSCAASGSTFVRYAMGWYRQAPGKERELVAAISGGGSTSYADSVKGRFTISRDNAKNTVYLQMNSLKPEDTAVYYCAAEKYRWENDAYQYYTFDYWGQGTQVTVSS | low polyreactivity
41 | QVQLVESGGGLVQTGGSLRLSCAASGRTFGYNAMGWYRQAPGKERELVASISYSGGSTYYADSVKGRFTISRDNAKNTVYLQMNSLKPEDTAVYYCAAKYWYWQSPSKYYYWGQGTQVTVSS | high polyreactivity
